According to patent publication US20250136678A1 (BIOSION, published 2025):
Blank lines part the entries; values can stand above or below the molecule they belong to.

What was measured:
[1] = target: T1, human CLDN18.2 (NP_001002026.1) (human, UniProt P56856-2 1-261); experiment: FACS on 293T-CLDN18.2 cells, PE fluorescence; item B4; blank without antibody (E4) MFI 21.8
T1 construct: whole, on cells; KATO III cells also served as target cells in the ADCC assay; also called Claudin18.2; Claudin-18 splice variant 2

[2] = target: T1, human CLDN18.2 (NP_001002026.1); experiment: FACS on 293T-CLDN18.2 cells, PE fluorescence; item D4; blank without antibody (E4) MFI 21.8
[3] = target: T1, human CLDN18.2 (NP_001002026.1); experiment: FACS on 293T-CLDN18.2 cells, PE fluorescence; item A4; blank without antibody (E4) MFI 21.8
[4] = target: human CLDN18.1 (Uniprot No:P56856) (human) (UniProt P56856); experiment: FACS on BAF3-CLDN18.1 cells, FITC fluorescence; item A1; blank without antibody (C1) MFI 242
[5] = target: T1, human CLDN18.2 (NP_001002026.1); experiment: FACS on BAF3-CLDN18.2 cells, FITC fluorescence; item G7; blank without antibody (H7) MFI 178
[6] = target: human CLDN18.1 (Uniprot No:P56856) (human) (UniProt P56856); experiment: FACS on BAF3-CLDN18.1 cells, FITC fluorescence; item B1; blank without antibody (C1) MFI 242
[7] = target: T1, human CLDN18.2 (NP_001002026.1); experiment: FACS on BAF3-CLDN18.2 cells, FITC fluorescence; item F7; blank without antibody (H7) MFI 178
[8] = target: T1, human CLDN18.2 (NP_001002026.1); experiment: cell-based binding FACS on BAF3-CLDN18.2 cells, MFI against Con of mAb, nM is the unit of the x axis; low curve (open down-triangles) reaching only MFI about 400-500
Procedure: (§1) The BAF3-CLDN18.2, BAF3-CLDN18.1 and BAF3 cells were harvested, washed twice and re-suspended in phosphate buffered saline (PBS) containing 2% v/v Fetal Bovine Serum (FACS buffer), BAF3 cells were used here as blank control. The cells, 1×10⁵ per well, were incubated in 96 well-plates with 100 μl serially diluted antibodies or controls (starting from 10 μg/mL, 5-fold serial dilution) in FACS buffer for 50 minutes on ice. […] Following an incubation of 50 minutes at 4° C. in dark, cells were washed three times and re-suspended in FACS buffer. Fluorescence was measured using a Becton Dickinson FACS Canto II-HTS equipment, and the MFI (mean fluorescence intensity) was plotted against antibody concentration. Data was analyzed using Graphpad Prism and EC₅₀ values were reported.

[9] = target: T1, human CLDN18.2 (NP_001002026.1); experiment: cell-based binding FACS on BAF3-CLDN18.2 cells, MFI against Con of mAb, nM is the unit of the x axis; the curve levels off near MFI 600
Procedure: as §1

[10] = target: T1, human CLDN18.2 (NP_001002026.1); experiment: cell-based blocking FACS on BAF3-CLDN18.2 cells; unlabeled Zolbetuximab against biotin labeled Zolbetuximab, SA-PE detection, nM is the unit of the x axis; signal falls only from about 870 to about 600 at the last point, no lower plateau is reached
Procedure: (§2) The anti-CLDN18.2 antibodies of the disclosure, and the controls were diluted with FACS buffer starting from 10 μg/mL with 5-fold serial dilution. BAF3-CLDN18.2 cells were harvested from cell culture flasks at the log phase, washed twice and re-suspended in PBS containing 2% v/v Fetal Bovine Serum (FACS buffer). […] Then the cells were washed twice with FACS buffer, added with 100 μl/well SA-PE (1:200 dilution in FACS buffer, Cat #:016-110-084, Jackson Immunoresearch), and incubated for 40 minutes at 4° C. in dark. Cells were washed twice and re-suspended in FACS buffer. Fluorescence was measured using a Becton Dickinson FACS Canto II-HTS equipment. Data was analyzed using Graphpad Prism and IC₅₀ values were reported.

[11] = target: T1, human CLDN18.2 (NP_001002026.1); experiment: cell-based binding FACS on BAF3-CLDN18.2 cells, MFI against Con of mAb, nM is the unit of the x axis; low curve reaching only MFI about 300-400 at the last point
Procedure: as §1

[12] = target: T1, human CLDN18.2 (NP_001002026.1); experiment: cell-based binding FACS on BAF3-CLDN18.2 cells; y axis unlabelled, nM is the unit of the x axis; the curve reaches only about 800 at the last point
Procedure: as §1

[13] = target: T1, human CLDN18.2 (NP_001002026.1); experiment: cell-based binding FACS on BAF3-CLDN18.2 cells, MFI against Con of mAb (nM)
Procedure: as §1

[14] = target: T1, human CLDN18.2 (NP_001002026.1); experiment: cell-based blocking FACS on BAF3-CLDN18.2 cells; competitor: biotin labeled Zolbetuximab, SA-PE detection, nM is the unit of the x axis; signal falls from about 800-870 to about 110 at the last point
Procedure: as §2

[15] = target: T1, human CLDN18.2 (NP_001002026.1); experiment: cell-based binding FACS on BAF3-CLDN18.2 cells, MFI against Con of mAb, nM is the unit of the x axis; the three mouse curves overlap and level off near MFI 2300-2400
Procedure: as §1

[16] = target: T1, human CLDN18.2 (NP_001002026.1); experiment: cell-based binding FACS on BAF3-CLDN18.2 cells; y axis unlabelled, nM is the unit of the x axis; the three chimeric curves run close together and reach about 7200-7700 at the last point without a clear plateau
Procedure: as §1

[17] = target: T1, human CLDN18.2 (NP_001002026.1); experiment: cell-based binding FACS on BAF3-CLDN18.2 cells, MFI against Con of mAb, nM is the unit of the x axis; curve lies in a bundle of overlapping curves reaching MFI about 5000-6000
Procedure: as §1

Molecule: anti-CLDN18 antibody (Cat #ab203563, Abeam)
- MFI at 1000 ng/ml [4]: 5340
- MFI at 500 ng/ml [5]: 3020
- MFI at 500 ng/ml [6]: 4020
- MFI at 1000 ng/ml [7]: 3340

B1: Zolbetuximab (antibody, human IgG1, kappa, V domains shown)
VH: QVQLQQPGAELVRPGASVKLSCKASGYTFTSYWINWVKQRPGQGLEWIGNIYPSDSYTNYNQKFKDKATLTVDKSSSTAYMQLSSPTSEDSAVYYCTRSWRGNSFDYWGQGTTLTVSS
VL: DIVMTQSPSSLTVTAGEKVTMSCKSSQSLLNSGNQKNYLTWYQQKPGQPPKLLIYWASTRESGVPDRFTGSGSGTDFTLTISSVQAEDLAVYYCQNDYSYPFTFGSGTKLEIKR
notes: also called IMAB362; Benchmark
- EC50 [8]: 4.67 nM
- EC50 [9]: 2.44 nM
- IC50 [10]: 17.3 nM
- EC50 [11]: 5.48 nM
- EC50 [12]: 11 nM

B2: huE1B1B8C7-V8 (antibody, human IgG1, kappa, V domains shown)
VH: QVQLVQSGAEVKKPGASVKVSCKASGYSFTNYWVNWVRQAPGQGLEWIGMVHPSGSETRLNQQFKDKATLTRDTSTSTVYMELSSLRSEDTAVYYCARVWSGNAFDYWGQGTLVTVSS
VL: DIVMTQSPDSLAVSLGERATINCLSSQSLLASGNQRNYLTWYQQKPGQPPKLLIYWASTRDSGVPDRFTGSGSGVDFTLTISSVQAEDVAVYYCQNGFSFPFTFGQGTKLEIKR
notes: Humanized, human IgG1/kappa; X positions as numbered in CLM-00003 and CLM-00004
- binding result [13]: binds

B3: mouse antibody E1B1B8C7 (antibody, V domains shown)
VH: QVQLQQPGAELVRPGTSVKLSCKASGYSFTNYWVNWVKQRPGQGLEWIGMVHPSGSETRLNQQFKDKATLTVDKSSNTAYMQLNRPTSEDSAVYYCARVWSGNAFDYWGQGTTLIVSS
VL: DIVMTQSPSSLTVTAGEKVTLNCLSSQSLLNSGNQRNYLTWYQQKPGQPPKLLIYWASTRDSGVPDRFTGGGSGVDFTLTIYRVQAEDLAFYYCQNGFSFPFTFGSGTKLEMK
notes: Mouse hybridoma monoclonal antibody; also called mouse E1B1B8C7
- IC50 [14]: 6.86 nM
- EC50 [15]: 2.24 nM

B4: chE1B1B8C7-V2 (antibody, human IgG1, kappa, V domains shown)
VH: QVQLQQPGAELVRPGTSVKLSCKASGYSFTNYWVNWVKQRPGQGLEWIGMVHPSGSETRLNQQFKDKATLTVDKSSNTAYMQLNRPTSEDSAVYYCARVWSGNAFDYWGQGTTLIVSS
VL: DIVMTQSPSSLTVTAGEKVTLNCLSSQSLLNAGNQRNYLTWYQQKPGQPPKLLIYWASTRDSGVPDRFTGGGSGVDFTLTIYRVQAEDLAFYYCQNGFSFPFTFGSGTKLEMKR
notes: Chimeric human IgG1/kappa; also called chimeric antibody chE1B1B8C7-V2
- EC50 [16]: 3.91 nM

Further lines, results first:

- MFI at 2500 ng/ml [1]: 28.7
- MFI at 156.25 ng/ml [2]: 21.4
- MFI at 10000 ng/ml [3]: 26.9
Molecule: hIgG (antibody)

- IC50 [14]: 4.38 nM
- EC50 [15]: 1.49 nM
B5: mouse antibody E1H4C3E5 (antibody, V domains shown)
VH: QVQLQQPGAELVRPGTSVKLSCKASGYSFTNYWMNWVKQRPGQGLEWIGMIHPSGSESRLNQKFKDKATLTVDKSSNTAYMQLNRPTSADSAVYYCARVWSGNAFDYWGQGTTLIVSS
VL: DIVMTQSPSSLTVTAGEKVTLSCMSSQSLLNSGNQKNYLTWYQQKPGQPPKLLIFWASTRDSGVPDRFTGGGSGTLFTLTIYRVQAEDLAFYYCQNGFSFPFTFGSGTKLEMR
notes: Mouse hybridoma monoclonal antibody

- IC50 [14]: 5.29 nM
- EC50 [15]: 1.76 nM
B6: mouse antibody E1A1F4B5 (antibody, V domains shown)
VH: QVQLQQPGAELVRPGTSVKLSCKASGYSFTNYWVNWVKQRPGQGLEWIGMIHPSGSETRLNQRFRDKTTLTVDRSSNTAYMQLNRPTSEDSAVYYCARVWSGNAFDYWGQGTTLIVSS
VL: DIVMTQSPSSLTVTAGEKVTLNCMSSQSLLNSGNQKNYLTWYQQKPGQPPKLLIYWASTRDSGVPDRFTGGGSGVDFTLTIYRVQAEDLAFYFCQNGFSFPFTFGSGTKLEMK
notes: Mouse hybridoma monoclonal antibody purified on Protein A

- EC50 [16]: 7.79 nM
B7: chE1B1B8C7-V3 (antibody, human IgG1, kappa, V domains shown)
VH: QVQLQQPGAELVRPGTSVKLSCKASGYSFTNYWVNWVKQRPGQGLEWIGMVHPSGSETRLNQQFKDKATLTVDKSSNTAYMQLNRPTSEDSAVYYCARVWSGNAFDYWGQGTTLIVSS
VL: DIVMTQSPSSLTVTAGEKVTLNCLSSQSLLNEGNQRNYLTWYQQKPGQPPKLLIYWASTRDSGVPDRFTGGGSGVDFTLTIYRVQAEDLAFYYCQNGFSFPFTFGSGTKLEMKR
notes: Chimeric human IgG1/kappa; also called chimeric antibody chE1B1B8C7-V3

- EC50 [17]: 3.08 nM
- EC50 [16]: 6.19 nM
B8: chE1B1B8C7-V1 (antibody, human IgG1, kappa, V domains shown)
VH: QVQLQQPGAELVRPGTSVKLSCKASGYSFTNYWVNWVKQRPGQGLEWIGMVHPSGSETRLNQQFKDKATLTVDKSSNTAYMQLNRPTSEDSAVYYCARVWSGNAFDYWGQGTTLIVSS
VL: DIVMTQSPSSLTVTAGEKVTLNCLSSQSLLASGNQRNYLTWYQQKPGQPPKLLIYWASTRDSGVPDRFTGGGSGVDFTLTIYRVQAEDLAFYYCQNGFSFPFTFGSGTKLEMKR
notes: Chimeric human IgG1/kappa; also called chimeric antibody chE1B1B8C7-V1
